Assay results: patent US20210347873A1 (SHANGHAI PHARMAEXPLORER, published 2021)
One block for each binder: values may come before it.

Tests used:
[1] = molecular target: T1, cynomolgus BLyS (full length, arginine to histidine at position 132) on CHO-K1 cells (cynomolgus, UniProt Q9Y275 1-285 (human entry)); test: flow cytometry, CHO-K1 cynoBLyS cells, antibody 0.0213 nM
T1 construct: also called cyno BLyS; CHO-K1 cynoBLyS
T1 chain: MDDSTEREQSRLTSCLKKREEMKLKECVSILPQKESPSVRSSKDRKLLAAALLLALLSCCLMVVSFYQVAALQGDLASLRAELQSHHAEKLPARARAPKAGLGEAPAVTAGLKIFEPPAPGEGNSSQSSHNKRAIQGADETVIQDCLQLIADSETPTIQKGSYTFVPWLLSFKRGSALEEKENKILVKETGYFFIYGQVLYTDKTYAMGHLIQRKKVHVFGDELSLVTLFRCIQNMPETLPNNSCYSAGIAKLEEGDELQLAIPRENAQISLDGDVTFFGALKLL
Description: (§1) The medium was aspirated completely, and the cells were rinsed once with PBS buffer (purchased from Invitrogen) and then treated with cell dispersion solution (TrypLE™ Express Enzyme, purchased from Life technology) and collected. The detailed steps are as follows: the cells were rinsed once with PBS buffer, after counting, the cells were diluted to 2×10⁶ cells/ml with PBS buffer, blocked with 2% (w/w) fetal bovine serum and incubated on ice for 30 minutes. 200 μL of which per well was aliquoted into a 96-well FACS plate and centrifuged at 2000 rpm at 4° C., then each 100 μL of the lead antibodies obtained from Embodiment 1 and 2 were aliquoted into each well and incubated on ice for 1 hour. […] After centrifuged and rinsed 3 times with FACS buffer, cells were suspended with 200 μL of FACS buffer and the results were detected and analyzed by FACS (FACS Calibur, purchased from BD). It was shown in Tables 12-13 that the lead antibody could bind to human BLyS protein on the cell surface and the lead antibody could cross-react with cynomolgus BLyS. The data in the table is MFI, the average fluorescence intensity of the cell population.

[2] = molecular target: hBLyS-ECD (His-tagged extracellular domain of human BLyS protein, Ala134-Leu285) (human, UniProt Q9Y275 134-285); test: cell-based or functional assay
[3] = molecular target: T1, cynomolgus BLyS (full length, arginine …); test: flow cytometry, CHO-K1 cynoBLyS cells, antibody 0 nM
Description: as §1

[4] = molecular target: T2, human BLyS (full length, arginine to histidine at position 132) on CHO-K1 cells (human, UniProt Q9Y275 1-285); test: flow cytometry, CHO-K1 hBLyS cells, antibody 0.107 nM
T2 construct: also called hBLyS; CHO-K1 hBLyS
T2 sequence (Q9Y275 whole entry R130H): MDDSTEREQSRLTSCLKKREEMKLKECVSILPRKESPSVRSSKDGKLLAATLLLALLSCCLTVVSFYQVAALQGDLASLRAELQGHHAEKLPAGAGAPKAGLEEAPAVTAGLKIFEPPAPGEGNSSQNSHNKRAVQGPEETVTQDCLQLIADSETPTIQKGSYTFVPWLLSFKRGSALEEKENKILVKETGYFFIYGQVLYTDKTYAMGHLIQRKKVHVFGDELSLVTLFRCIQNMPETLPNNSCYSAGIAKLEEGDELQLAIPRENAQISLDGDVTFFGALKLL
Description: as §1

[5] = molecular target: T2, human BLyS (full length, arginine to …); test: flow cytometry, CHO-K1 hBLyS cells, antibody 0.00427 nM
Description: as §1

[6] = molecular target: T1, cynomolgus BLyS (full length, arginine …); test: flow cytometry, CHO-K1 cynoBLyS cells, antibody 0.107 nM
Description: as §1

[7] = molecular target: T1, cynomolgus BLyS (full length, arginine …); test: flow cytometry, CHO-K1 cynoBLyS cells, antibody 0.00427 nM
Description: as §1

[8] = molecular target: T2, human BLyS (full length, arginine to …); test: flow cytometry, CHO-K1 hBLyS cells, antibody 0 nM
Description: as §1

[9] = molecular target: T2, human BLyS (full length, arginine to …); test: flow cytometry, CHO-K1 hBLyS cells, antibody 0.0213 nM
Description: as §1

[10] = molecular target: T1, cynomolgus BLyS (full length, arginine …); test: flow cytometry, CHO-K1 cynoBLyS cells, antibody 2.67 nM
Description: as §1

mouse BLyS protein = mouse BLyS protein (mouse, UniProt Q9WU72 69-309); test: cell-based or functional assay
Chain of mouse BLyS protein (Q9WU72 69-309): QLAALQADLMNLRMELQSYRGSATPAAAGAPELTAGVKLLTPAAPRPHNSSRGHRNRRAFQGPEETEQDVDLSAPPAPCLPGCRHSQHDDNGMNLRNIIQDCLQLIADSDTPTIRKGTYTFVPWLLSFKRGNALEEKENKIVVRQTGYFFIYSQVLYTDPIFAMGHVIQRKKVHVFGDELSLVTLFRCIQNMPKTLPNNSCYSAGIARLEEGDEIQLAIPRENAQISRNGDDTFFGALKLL

[11] = molecular target: T2, human BLyS (full length, arginine to …); test: flow cytometry, CHO-K1 hBLyS cells, antibody 66.7 nM
Description: as §1

[12] = molecular target: T2, human BLyS (full length, arginine to …); test: flow cytometry, CHO-K1 hBLyS cells, antibody 0.534 nM
Description: as §1

[13] = molecular target: T1, cynomolgus BLyS (full length, arginine …); test: flow cytometry, CHO-K1 cynoBLyS cells, antibody 13.3 nM
Description: as §1

[14] = molecular target: T2, human BLyS (full length, arginine to …); test: flow cytometry, CHO-K1 hBLyS cells, antibody 13.3 nM
Description: as §1

[15] = molecular target: T2, human BLyS (full length, arginine to …); test: flow cytometry, CHO-K1 hBLyS cells, antibody 2.67 nM
Description: as §1

[16] = molecular target: T1, cynomolgus BLyS (full length, arginine …); test: flow cytometry, CHO-K1 cynoBLyS cells, antibody 0.534 nM
Description: as §1

[17] = molecular target: T1, cynomolgus BLyS (full length, arginine …); test: flow cytometry, CHO-K1 cynoBLyS cells, antibody 66.7 nM
Description: as §1

[18] = molecular target: T3, human BLyS (full length, arginine 132 mutated to histidine) on CHO-K1 cells (human, UniProt Q9Y275 1-285); test: flow cytometry (FACS) on CHO-K1 hBLyS cells, Alexa 488 secondary antibody
T3 construct: also called hBLyS; CHO-K1 hBLyS
T3 sequence (Q9Y275 other isoform, or with tags, fused parts or gaps limits assumed, change not shown): as the sequence (Q9Y275 whole entry R130H) above
Description: as §1

[19] = molecular target: T4, cynomolgus BLyS (full length, arginine 132 mutated to histidine) on CHO-K1 cells (cynomolgus, UniProt Q9Y275 1-285 (human entry)); test: flow cytometry (FACS) on CHO-K1 cynoBLyS cells, Alexa 488 secondary antibody
T4 construct: also called cyno BLyS; CHO-K1 cynoBLyS
T4 chain: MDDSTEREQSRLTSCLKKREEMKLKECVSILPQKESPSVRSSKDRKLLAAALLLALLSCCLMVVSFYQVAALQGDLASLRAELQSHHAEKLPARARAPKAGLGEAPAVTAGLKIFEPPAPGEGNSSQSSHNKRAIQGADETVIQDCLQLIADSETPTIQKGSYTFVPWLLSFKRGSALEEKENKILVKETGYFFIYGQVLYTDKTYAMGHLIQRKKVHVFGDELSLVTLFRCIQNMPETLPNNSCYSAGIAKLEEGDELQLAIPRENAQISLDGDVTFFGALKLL
Description: as §1

- MFI [1]: 112 MFI
- mouse B lymphocyte proliferation (OD450 nm), antibody 0 nM [2]: 2960 OD450 nm
- mouse B lymphocyte proliferation (OD450 nm), antibody 0.000256 nM [2]: 3380 OD450 nm
- mouse B lymphocyte proliferation (OD450 nm), antibody 0.00128 nM [2]: 3760 OD450 nm
- mouse B lymphocyte proliferation (OD450 nm), antibody 0.0064 nM [2]: 3770 OD450 nm
- mouse B lymphocyte proliferation (OD450 nm), antibody 0.032 nM [2]: 2940 OD450 nm
- mouse B lymphocyte proliferation (OD450 nm), antibody 0.16 nM [2]: 2990 OD450 nm
- mouse B lymphocyte proliferation (OD450 nm), antibody 0.8 nM [2]: 438 OD450 nm
- mouse B lymphocyte proliferation (OD450 nm), antibody 4 nM [2]: 364 OD450 nm
- mouse B lymphocyte proliferation (OD450 nm), antibody 20 nM [2]: 383 OD450 nm
- mouse B lymphocyte proliferation (OD450 nm), antibody 100 nM [2]: 377 OD450 nm
- MFI [3]: 22.8 MFI
- MFI [4]: 174 MFI
- MFI [5]: 48.2 MFI
- MFI [6]: 288 MFI
- MFI [7]: 53 MFI
- MFI [8]: 32.4 MFI
- MFI [9]: 78.7 MFI
- MFI [10]: 705 MFI
- mouse B lymphocyte proliferation (OD450 nm), antibody 0 nM (mouse BLyS protein): 2130 OD450 nm
- mouse B lymphocyte proliferation (OD450 nm), antibody 0.000256 nM (mouse BLyS protein): 2200 OD450 nm
- mouse B lymphocyte proliferation (OD450 nm), antibody 0.00128 nM (mouse BLyS protein): 2150 OD450 nm
- mouse B lymphocyte proliferation (OD450 nm), antibody 0.0064 nM (mouse BLyS protein): 2310 OD450 nm
- mouse B lymphocyte proliferation (OD450 nm), antibody 0.032 nM (mouse BLyS protein): 2580 OD450 nm
- mouse B lymphocyte proliferation (OD450 nm), antibody 0.16 nM (mouse BLyS protein): 2360 OD450 nm
- mouse B lymphocyte proliferation (OD450 nm), antibody 0.8 nM (mouse BLyS protein): 2310 OD450 nm
- mouse B lymphocyte proliferation (OD450 nm), antibody 4 nM (mouse BLyS protein): 2410 OD450 nm
- mouse B lymphocyte proliferation (OD450 nm), antibody 20 nM (mouse BLyS protein): 2290 OD450 nm
- mouse B lymphocyte proliferation (OD450 nm), antibody 100 nM (mouse BLyS protein): 2310 OD450 nm
- MFI [11]: 406 MFI
- MFI [12]: 318 MFI
- MFI [13]: 710 MFI
- MFI [14]: 349 MFI
- MFI [15]: 332 MFI
- MFI [16]: 688 MFI
- MFI [17]: 770 MFI
B1: 97E7B3F2 (antibody, V domains shown)
VH: EVQLQQSGPELVKSGASVKISCKASGYTFTDHKMHWVKQSHGKSLEWIGYISPYNGGTGYNQKFKSKVTLTVDISSSTAYMELRSLTSEDSAVYYCARWGFYDVMDSWGQGTSVTVSS
VL: DVLLTQTPLSLPVSLGDQASISCRSSQTIVHIIGDTYLEWYLQKPGQSPKLLIYKVSNRFSGVPDRFSGSGAGTDFTLKISRVEAEDLGVYYCFQGSHVPRTFGGGTKLEIK
notes: Mouse hybridoma monoclonal antibody purified on Protein G

- EC50 (read off the curve) [18]: ~0.1 nM
- EC50 (read off the curve) [19]: ~0.1 nM
B2: 97E7B3F2 (antibody, V domains shown)
VH: EVQLQQSGPELVKSGASVKISCKASGYTFTDHKMHWVKQSHGKSLEWIGYISPYNGGTGYNQKFKSKVTLTVDISSSTAYMELRSLTSEDSAVYYCARWGFYDVMDSWGQGTSVTVSS
VL: DVLLTQTPLSLPVSLGDQASISCRSSQTIVHIIGDTYLEWYLQKPGQSPKLLIYKVSNRFSGVPDRFSGSGAGTDFTLKISRVEAEDLGVYYCFQGSHVPRTFGGGTKLEIK
notes: Mouse hybridoma antibody purified on Protein G
